Results on 4 molecules are retold here after publication PMC10778600, “Conserved Residues Lys64 and Glu78 at the Subunit Surface of Tau Glutathione Transferase in Rice Affect Structure and Enzymatic Properties” (International Journal of Molecular Sciences, 2023).

Data set [1] deals with OsGSTU17 mutant K64A (Oryza sativa). Put plainly: native gel or EMSA; native PAGE of the purified proteins, gel pre-run 30-60 min, 100-200 V, 0-4 °C; BSA and ovalbumin as markers; molecular weight compared with SDS-PAGE of the denatured proteins. (Mobility shift assays separate free from complexed probe on a gel.)
Data set [2] has as its target OsGSTU17 mutant E78A (Oryza sativa). The data set is described as above.
Data set [3] has as its target wild-type OsGSTU17 (rice tau class glutathione transferase) (Oryza sativa). The description is as above.
Substrate in data set [4]: O=[N+]([O-])c1ccc(Cl)c2nonc12
Put plainly: steady-state kinetics, non-linear regression. The conditions noted are these: GSH fixed at 1.0 mM; NBD-Cl 0.2 to 1.0 mM. In kind it is biochemical, Oryza sativa. An excerpt:
steady-state kinetics, non-linear regression on OsGSTU17

For OsGSTU17 mutant K64A (enzyme), the stoichiometry N (in general, a count of units in the complex or per binding partner) in data set [1] was 2. On to OsGSTU17 mutant E78A (enzyme), for which, in data set [2], the stoichiometry N came out at 2. The molecule “wild-type OsGSTU17 (rice tau class glutathione transferase) (enzyme)” came in with a stoichiometry N in data set [3] of 2.

B1: OsGSTU17 (Oryza sativa Japonica Group; K64A) (protein)
chain: MAADKGVKVFGMWASPMAIRVEWALRLKGVDYEYVDEDLANKSEALLRHNPVTKKVPVLVHDGAPLAESTVIVEYIDEAWKHGYPIMPSDPFDRAQARFWARFAEEKCNAALYPIFMTTGEEQRKLVHEAQQCLKTLETALEGKKFFGGDAFGYLDIVTGWFAYWLPVIEEACGVEVVTDEALPLMKAWFDRVLAVDAVKAVLPPRDKLVALNKARREQILSA
Turning to B1, in data set [4], the Km (commonly the concentration of substrate that gives half-maximal velocity) came to 507 ± 25 µM, the maximum rate (Vmax) (commonly the rate approached at saturating substrate) is 0.287 µM/min/mg, the kcat (commonly the maximal rate divided by the concentration of active sites) came to 0.217 s⁻¹ and the kcat/Km (usually the turnover number divided by the Michaelis constant) stood at 428 M⁻¹ s⁻¹.
